The nanobody polyreactivity screen of Harvey et al. (2022)

Assay: yeast display, Sf9 membrane polyspecificity reagent, FACS + sequencing; frameworks hold sequencing errors
In short: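 Galactose-induced (36–48 hours) yeast carrying a synthetic nanobody display library were exposed to 10% biotinylated, detergent-solubilized Sf9 membrane reagent at 4 °C for 1 hour. FACS followed streptavidin microbead enrichment, using low and high (top ~1%) gates for expression (anti-HA) and reagent binding (streptavidin). Colony PCR, MiSeq 2 × 250 sequencing and CDR-length filtering followed. Labels for polyreactivity reflect the gate of origin.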

Sequence	polyreactivity (PSR sort gate)
QVQLVESGGGLVQAGGSLRLSCAASGSTFTSYTMGWYRQAPGKERELVAAISRGGGRTYYADSVKARFTISRDNAKNTVYLQMYRLNPEDTAVYYCNKVLRGDRAGPGYDHWGLGTQVTVSS	high polyreactivity
QVQLVESGGGLVQAGGSLRLSCAASGSTFTTYAMGWYRQAPGKERELVAVITDSGGTYYADSVQGRFTISRDNAKNTVYLQMNSLKPEDTAVYYCNRVFPPTDYEFDSWGQGTQVTVSS	low polyreactivity
QVQLVESGGGLVQAGGSLRLSCAASGSTFTTYGMGWYRQAPGKERELVAAISLSSGRTYYADSVKGRFTISRDNAKNTVYLQMNSLKPEDTAVYYCNKRSQKPSQYKPYGYWGQGTQVTVSS	high polyreactivity
QVQLVESGGGLVQAGGSLRLSCAASGSTFTWNAMGWYRQAPGKERELVAAISGDGGSTYYADSVKGRFTISRDNAKNTVYLQMNSLKPEDTAVYYCAASSAHIYSYRYNYWGQGTQVTVSS	low polyreactivity
QVQLVESGGGLVQAGGSLRLSCAASGSTFTYNAMGWYRQAPGKERELVASISSGTTTYYADSVKGRFTISRDNAKNTVYFQMHSLKPEDTAVYYCAVDSWSRVQGWLAHNYDYWGQGTQVTVSS	low polyreactivity
QVQLVESGGGLVQAGGSLRLSCAASGSTFTYYAMGWSRQAPGKERELVAVINKSGGRTNYADSVKGRFTISRDNPKNTVYLQMNSLKPEDTAVYYCNAYYTSFYTGDDYWGQGTQVTVSS	high polyreactivity
QVQLVESGGGLVQAGGSLRLSCAASGSTFTYYAMGWSRQEPGIEREFVAAISRRGGSTYYADSVKGRFTISRDNAMNTVYLQMKSLKQEDTPVYYCNVVIYSYGINGRYDYWGQGTQDTVSS	high polyreactivity
QVQLVESGGGLVQAGGSLRLSCAASGSTFTYYAMGWYRQAPGKERELVAAITSRGGITYYADSVKGRFTISRDNAKNTVYLQMHSLKPEDTAVYYCNAYSQRYGYYYWGQGTQVTVSS	high polyreactivity
QVQLVESGGGLVQAGGSLRLSCAASGSTFTYYTMGWSRQAPGKERELVAASSRTTGSTYYADSVKGRFTISRDNAKNTVYLQMNSLIPEDTAVYYCAAQSYKILLYFIGTAGDGYWGQGTQVTVSS	low polyreactivity
QVQLVESGGGLVQAGGSLRLSCAASGSTFVAYPMGWYRQAPGKERELVATISSGGNTKYADSVKGRFTISRDNAKNTVYLQMNSVKPEDTAVYYCNAGRYRYRYRSYPYDYWGQGTQVTVSS	high polyreactivity
QVQLVESGGGLVQAGGSLRLSCAASGSTFVDNAMGWYRQAPGKERELVAAISRGGSTHYADSVKGRFTISRDNAKNTVYLQMNSLKPEDTAVYYCNKDTKRLLWFYKYYYWGQGTQVTVSS	high polyreactivity
QVQLVESGGGLVQAGGSLRLSCAASGSTFVDYAMGRYRQAPGKERELVAAITRSGSSTYYADSVKGRFTISRDIAKNTVYLQMNSLKPEDTAVYYCAAVRYRGLQVKFYYWGQGTQVTVSS	high polyreactivity
QVQLVESGGGLVQAGGSLRLSCAASGSTFVDYAMGWYRQAPGKERELVAAISFSDGSTYYADSVKGRFTISRDNAKNTVYLQMNSLKPEDTAVYYCAKDAYWGYRWYTYDYWGQGTQVTVSS	low polyreactivity
QVQLVESGGGLVQAGGSLRLSCAASGSTFVENAMGWYRQAPGKEREVVAAISSSGDSTFYADSVKGRFTISRDNAKNTVYLQMKSLKPEDTAVYYCAADRRINYDGLDMDYWGQGTQVTVSS	low polyreactivity
QVQLVESGGGLVQAGGSLRLSCAASGSTFVENAMGWYRQAPGKQRELVAAISSSGDSTFYADSEKGRFTISRDNAKNTVYLQMNSLIPEDTAVYYCAADRRINYDGLDMDYWGQGTQVTVSS	low polyreactivity
QVQLVESGGGLVQAGGSLRLSCAASGSTFVGNAMGWYRHAPGKEREMVATISNSGGRTYYADSVKGRFTISRDNAKNTVYLQLNSLKPEDTEVYYCAADHPAFGPGYSFDYWGQGTQVTVSS	low polyreactivity
QVQLVESGGGLVQAGGSLRLSCAASGSTFVGNAMGWYRQAPGKERELVAAITGGGGSTNYADSVKGRFTISRDNAKNTVYLQMNSLKPEDTAVYYCAVEVYYTGFYYSPYAYDYWGQGTQVTVSS	low polyreactivity
QVQLVESGGGLVQAGGSLRLSCAASGSTFVGNAMGWYRQAPGKERELVANITSGGSTNYADSVKGRFTISRDNAKNTVYLQMNSLKPEDTAVYYCAAVYLWSQRREYWGQGTQVTVSS	low polyreactivity
QVQLVESGGGLVQAGGSLRLSCAASGSTFVGNAMGWYRQAPGKERELVATMSNSGGRTYYADSVKGRFTISRDNAKNSVYLQMNSLKPEDTAVYFCNAQFDLTFRGTGDYWGQGTQVTVSS	low polyreactivity
QVQLVESGGGLVQAGGSLRLSCAASGSTFVGYAMGWYRQAPGKERELVAAISRSGGRTYYADSVKGRFTISRDNAKNTVYLQMNSLKPEETAVYYCYPYYIASTFDYWGQGTQVTVSS	high polyreactivity
QVQLVESGGGLVQAGGSLRLSCAASGSTFVGYAMGWYRQAPGKERELVADIDSIGGSTYYADSVKGRFTISRDNAKNTVYLQMNSLKPEDTAVYYCAAYQHPGLRTSYEYWGQGTQVTVSS	low polyreactivity
QVQLVESGGGLVQAGGSLRLSCAASGSTFVGYAMGWYRQAPGKERELVADITWSGTNTYYADSVKGRFTISRDNAKNTVYLQMNSLKPEDTAVYYCAAELELLLVGFFTYRREYWGQGTQVTVSS	low polyreactivity

Sequence	polyreactivity (PSR sort gate)
QVQLVESGGGLVQAGGSLRLSCAASGSTFVGYTMGWYIQAPGKERELVAAISRGGGSTYYADSVKGRFTISRDNAKNTVYLQMNSLKPEDTAVYYCAATGFYARLSSIYYYWGQGTQVTVSS	high polyreactivity
QVQLVESGGGLVQAGGSLRLSCAASGSTFVGYVMGWSRQAPGKERELVAAITRSGTSTYYADSVKGRFTISRDNAKNTVYLQMNSLKPEDTAVYYCARRYVSSDYYYWGQGTQVTVSS	low polyreactivity
QVQLVESGGGLVQAGGSLRLSCAASGSTFVHNAMGWYRQAPGKERELVAAISESGGGTYYADSVKGRFKISRDNAKNTVYLQMNSQKPEDTAVYYCAAPPAGENWRDGGGYFGQGTQVTVSS	low polyreactivity
QVQLVESGGGLVQAGGSLRLSCAASGSTFVHYAMGWYRQAPGKERELVAAITISGGRTYYADSVKGRFTISRDNAKNTVYLQMNSLKAEDTAVYYCNADHYHRTWGYDYWGQGTQVTVSS	low polyreactivity
QVQLVESGGGLVQAGGSLRLSCAASGSTFVIYALGWYRQAPGKERELVAALSWSGGRTNYADSVKGRFTISRDNAKNTVYLQLNSLKPEDTAVYYCAAVTGVPYPHGRYKYGYWGQGTQVTVSS	high polyreactivity
QVQLVESGGGLVQAGGSLRLSCAASGSTFVKNVMGWYRQAPGKERELVAGITRGGSTYYADSVKGRFTISRDNAKNTVYLQMNSLKPEDTAVYYCAAARWSQYRTWMNYWGQGTQVTVSS	high polyreactivity
QVQLVESGGGLVQAGGSLRLSCAASGSTFVKYVMGWYRQAPGKERELVAAISWSGGSTYYADSVKGRFTISRDNAKNTVYLQMNSLKPEDTAVYYCAAVNWYDSYAKYYWGQGTQVTVSS	high polyreactivity
QVQLVESGGGLVQAGGSLRLSCAASGSTFVLYAMGWYIQAPGKERELVAAIDSSGGSTYYADSVKGRFTISRDNAKNTVYVQMNSLKPEDTAVYYCAARFKGLLGYWGQGTQVTVSS	high polyreactivity
QVQLVESGGGLVQAGGSLRLSCAASGSTFVLYAMGWYRQAPGKERELVATITTSGARTHYADSVKGRFTISRDNAKNTVYLQINSLKPEDTAVYYCAAESYWTGYDYGGQGTQVTVSS	low polyreactivity
QVQLVESGGGLVQAGGSLRLSCAASGSTFVNNAMGWYRQAPGKERELGASITVGGSTYYADSVKGRFTISRDNAKNTVYLQMNSLKPEDTAVYYCAAADYRFWSRYDYWGQGTQVTVSS	low polyreactivity
QVQLVESGGGLVQAGGSLRLSCAASGSTFVNYAMGWYRQAPGKERELVAAITRGGRTYYADSVKGRFTISRDNAKNTVYLQMNSLKPEDTAVYYCAARRSYNPAFGYWGQGTQVTVSS	high polyreactivity
QVQLVESGGGLVQAGGSLRLSCAASGSTFVNYVMGWYRPAPGKERELVAAISRRGTSTRYADSVKGRFTISRDNAKNTVYLQMNSLKPEDTAVYYCAATRYVGVTGYGYWGQGTQVTVSS	high polyreactivity
QVQLVESGGGLVQAGGSLRLSCAASGSTFVPNAMGWYRQAPGKERELVAAISYSGGTTYYADSVKGRFTISRDNAKNTVYLQMNSLKPEDTEVYYCAARSKGAAAILDDYWGQGTQVTVSS	low polyreactivity
QVQLVESGGGLVQAGGSLRLSCAASGSTFVPNAMGWYRQSPGKERELVAAISRSAGSTYYADSVKGRFTISRDNAKNTVYLQMNSLKPEDTAVYYCAADSLTYIAYDYWGQGTQVTVSS	high polyreactivity
QVQLVESGGGLVQAGGSLRLSCAASGSTFVPYAIGWYRQAPGKERELVASITYSGGSTSYADSVKGRFTISRDNAKNTVYLQMNSLKPEDTAVYYCAAVPWVVYSGYDYWGQGTQVTVSS	low polyreactivity
QVQLVESGGGLVQAGGSLRLSCAASGSTFVPYAMGWYRQAPGKERELVAAITTSGGNTYYADSVKGRFTISRDNAKNTVYLQMNSLKPEDTAVYYCAADTYRRFDYWGQGTQVTVSS	low polyreactivity
QVQLVESGGGLVQAGGSLRLSCAASGSTFVPYTMGWYRQAPGKERELVAAISGSGGTDYADSVKGRFTISRDNAKNTVYLQMNSLKPEDTAVYYCAADPQYWRFYSYGGGDDYWGQGTQVTVSS	low polyreactivity
QVQLVESGGGLVQAGGSLRLSCAASGSTFVQNAMGWYRQAPGKERELVAAISRTGGSTYYADSVKGRFTISRDNAKNTVYLQMKSLIPEDTAVYYCATRPPHYSWPKIIEFGSWGQGSQVTVSS	high polyreactivity
QVQLVESGGGLVQAGGSLRLSCAASGSTFVQYAKGWSRQAPGKERELVATISKSGGDTYADSVKGRFTISRDNAKNTVYLQMNSLKPEDTAVYYCAAGYTWVSHRYRYAYNYWGQGTQVTVSS	low polyreactivity
QVQLVESGGGLVQAGGSLRLSCAASGSTFVQYAMGWYRQAPGKERELVAAITSGGRTNYADSVKGRFTISRDNAKNTVYLQMNSLKPEDTAVYYCAARYGSNSPRGYEYYYWGQGTQVTVSS	low polyreactivity
QVQLVESGGGLVQAGGSLRLSCAASGSTFVQYDMGWYRQAPGKERELVAGITRTGSTYADSVKGRFTISRDNAKNTVYLQMNSLKPEDTADYYCAVYVSGYAQTSRYDYWGQGTQVTVSS	low polyreactivity
